B1: DR5 mAb 1: anti-human DR5 monoclonal antibody; VL SEQ ID NO:3, VH SEQ ID NO:8 (antibody, listed as Mus musculus, V domains shown)
VH: EVKFLESGGGLVQPGGSLKLSCVASGFDFSRYWMSWVRQAPGKGLEWIGEINPDSNTINYTPSLKDKFIISRDNAKNTLYLQMTKVRSEDTALYYCTRRAYYGNPAWFAYWGQGTLVTVSS
VL: DIVLTQSPASLAVSLGQRATISCRASKSVSSSGYSYMHWYQQKPGQPPKVLIFLSSNLDSGVPARFSGSGSGTDFTLNIHPVEDGDAATYYCQHSRDLPPTFGGGTKLEIK
modifications: (1)..(121) Anti-DR5 Antibody mAb 1 Heavy Chain Variable Region; (1)..(111) Anti-DR5 Antibody mAb 1 Light Chain Variable Region
B2: DR5 mAb 2: murine anti-human DR5 monoclonal antibody; VL SEQ ID NO:13, VH SEQ ID NO:18 (antibody, listed as Mus musculus, V domains shown)
VH: KVQLQQSGAELVKPGASVKLSCKASGYTFTEYILHWVKQKSGQGLEWIGWFYPGNNNIKYNEKFKDKATLTADKSSSTVYMELSRLTSEDSAVYFCARHEQGPGYFDYWGQGTTLTVSS
VL: DIVMTQSHKFMSTSVGDRVSITCKASQDVNTAVAWYQQKPGQSPKLLIYWASTRHTGVPDRFTGSGSGTDYTLTIKSVQAEDLTLYYCQQHYITPWTFGGGTKLEIK
modifications: (1)..(119) Anti-DR5 Antibody mAb 2 Heavy Chain Variable Region; (1)..(107) Anti-DR5 Antibody mAb 2 Light Chain Variable Region

What was measured:
22RV1 = test: MTS cell proliferation assay; assay type: cell-based; details: 22RV1 (Prostate); 1 μg/ml, ±10 μg/ml αmFc; two days
Procedure: (§1) Cell lines obtained from ATCC were cultured under standard tissue culture conditions. Each cell line was plated at ˜2×10^4 cells/well (in 96-well plates), and incubated overnight in F12/DMEM media supplemented with 10% FBS. […] Cell viability was determined using Promega CellTiter 96® AQeous Non-Radioactive Cell Proliferation Assay (Cat # G5430) essentially as described in the manufacturer's instructions to assay the amount of soluble formazan produced by cellular reduction of the MTS, which is a measure of the number of viable cells in the culture. Briefly, MTS/PMS regent was added to the wells and the absorbance at 490 nm (referenced at […]) was read in a Molecular Devices ThermoMax microplate reader.
(§2) Similar studies were performed over a range of anti-DR5 mAb concentrations from ˜10^−3 nM to ˜10^2 nM. The data for COLO205 cells is provided in FIG. 13, and are representative of cell lines sensitive to the antibodies of the invention.
(§3) The cytotoxicity of tetravalent DR5-Binding Molecules of the present invention was investigated. […] His-tagged TRAIL (R&D systems) was used as a positive control.
(§4) Similar studies were performed over a range of anti-DR5 mAb concentrations from ˜10^−3 nM to ˜10^2 nM.

786O = test: MTS cell proliferation assay; assay type: cell-based; details: 786O (Kidney); 1 μg/ml, ±10 μg/ml αmFc; two days
Procedure: as §1, §2, §3, §4

A498 = test: MTS cell proliferation assay; assay type: cell-based; details: A498 (Kidney); 1 μg/ml, ±10 μg/ml αmFc; two days
Procedure: as §1, §2, §3, §4

AsPC1 [1] = test: MTS cell proliferation assay; assay type: cell-based; details: AsPC1 (Pancreas); 1 μg/ml, ±10 μg/ml αmFc; two days
Procedure: as §1, §2, §3, §4

BT474 = test: MTS cell proliferation assay; assay type: cell-based; details: BT474 (Breast); 1 μg/ml, ±10 μg/ml αmFc; two days
Procedure: as §1, §2, §3, §4

CaKi2 = test: MTS cell proliferation assay; assay type: cell-based; details: CaKi2 (Kidney); 1 μg/ml, ±10 μg/ml αmFc; two days
Procedure: as §1, §2, §3, §4

Calu3 = test: MTS cell proliferation assay; assay type: cell-based; details: Calu3 (Lung); 1 μg/ml, ±10 μg/ml αmFc; two days
Procedure: as §1, §2, §3, §4

ES2 [2] = test: MTS cell proliferation assay; assay type: cell-based; details: ES2 (Ovary); 1 μg/ml, ±10 μg/ml αmFc; two days
Procedure: as §1, §2, §3, §4

HPAFII [3] = test: MTS cell proliferation assay; assay type: cell-based; details: HPAFII (Pancreas); 1 μg/ml, ±10 μg/ml αmFc; two days
Procedure: as §1, §2, §3, §4

HT29 = test: MTS cell proliferation assay; assay type: cell-based; details: HT29 (Colon); 1 μg/ml, ±10 μg/ml αmFc; two days
Procedure: as §1, §2, §3, §4

Hs700T [4] = test: MTS cell proliferation assay; assay type: cell-based; details: Hs700T (Pancreas); 1 μg/ml, ±10 μg/ml αmFc; two days
Procedure: as §1, §2, §3, §4

Hs746T = test: MTS cell proliferation assay; assay type: cell-based; details: Hs746T (Stomach); 1 μg/ml, ±10 μg/ml αmFc; two days
Procedure: as §1, §2, §3, §4

MCF7 = test: MTS cell proliferation assay; assay type: cell-based; details: MCF7 (Breast); 1 μg/ml, ±10 μg/ml αmFc; two days
Procedure: as §1, §2, §3, §4

MDA-MB-175VII = test: MTS cell proliferation assay; assay type: cell-based; details: MDA-MB-175VII (Breast); 1 μg/ml, ±10 μg/ml αmFc; two days
Procedure: as §1, §2, §3, §4

MDA-MB-231 = test: MTS cell proliferation assay; assay type: cell-based; details: MDA-MB-231 (Breast); 1 μg/ml, ±10 μg/ml αmFc; two days
Procedure: as §1, §2, §3, §4

MDA-MB-361 = test: MTS cell proliferation assay; assay type: cell-based; details: MDA-MB-361 (Breast); 1 μg/ml, ±10 μg/ml αmFc; two days
Procedure: as §1, §2, §3, §4

NCI-N87 = test: MTS cell proliferation assay; assay type: cell-based; details: NCI-N87 (Stomach); 1 μg/ml, ±10 μg/ml αmFc; two days
Procedure: as §1, §2, §3, §4

SKOV3 = test: MTS cell proliferation assay; assay type: cell-based; details: SKOV3 (Ovary); 1 μg/ml, ±10 μg/ml αmFc; two days
Procedure: as §1, §2, §3, §4

SW48 = test: MTS cell proliferation assay; assay type: cell-based; details: SW48 (Colon); 1 μg/ml, ±10 μg/ml αmFc; two days
Procedure: as §1, §2, §3, §4

SW948 = test: MTS cell proliferation assay; assay type: cell-based; details: SW948 (Colon); 1 μg/ml, ±10 μg/ml αmFc; two days
Procedure: as §1, §2, §3, §4

COLO205 = test: MTS cell proliferation assay; assay type: cell-based; details: COLO205 (Colon); 1 μg/ml, ±10 μg/ml αmFc; two days
Procedure: as §1, §2, §3, §4
His-tagged TRAIL (R&D systems) was used as a positive control.

[5] = tested on: human DR5-Fc fusion protein; test: competition for binding to immobilized DR5-Fc fusion; details: for amount of immobilized biotinylated antibody: 1 μg/mL biotinylated DR5 mAb, 1 μg/mL DR5-Fc Fusion coat
Procedure: In order to determine whether the antibodies bound to different DR5 epitopes, a human DR5-Fc fusion protein was prepared and was coated to an immobilized surface.

HPAFII [6] = test: […]-GLO cell viability assay with vorinostat; assay type: cell-based; details: HPAFII (Pancreas); 1 μg/ml + 10 μM Vorinostat
ES2 [7] = test: […]-GLO cell viability assay with vorinostat; assay type: cell-based; details: ES2 (Ovary); 1 μg/ml + 10 μM Vorinostat
AsPC1 [8] = test: […]-GLO cell viability assay with vorinostat; assay type: cell-based; details: AsPC1 (Pancreas); 1 μg/ml + 1 μM Vorinostat
Hs700T [9] = test: […]-GLO cell viability assay with vorinostat; assay type: cell-based; details: Hs700T (Pancreas); 1 μg/ml + 1 μM Vorinostat

human DR5-Fc fusion protein, sequence (as listed by the source): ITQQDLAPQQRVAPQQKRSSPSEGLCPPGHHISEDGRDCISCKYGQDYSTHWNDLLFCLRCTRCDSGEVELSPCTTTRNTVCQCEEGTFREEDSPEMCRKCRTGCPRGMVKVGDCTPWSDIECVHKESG

| Molecule | % Inhibition (Average) (22RV1) | % Inhibition (Average) (786O) | % Inhibition (Average) (A498) | % Inhibition (Average) (AsPC1 [1]) | % Inhibition (Average) (BT474) | % Inhibition (Average) (CaKi2) | % Inhibition (Average) (Calu3) | % Inhibition (Average) (ES2 [2]) | % Inhibition (Average) (HPAFII [3]) | % Inhibition (Average) (HT29) | % Inhibition (Average) (Hs700T [4]) | % Inhibition (Average) (Hs746T) | % Inhibition (Average) (MCF7) | % Inhibition (Average) (MDA-MB-175VII) | % Inhibition (Average) (MDA-MB-231) | % Inhibition (Average) (MDA-MB-361) | % Inhibition (Average) (NCI-N87) | % Inhibition (Average) (SKOV3) | % Inhibition (Average) (SW48) | % Inhibition (Average) (SW948) | other results |
| --- | --- | --- | --- | --- | --- | --- | --- | --- | --- | --- | --- | --- | --- | --- | --- | --- | --- | --- | --- | --- | --- |
| B1 | 3.03% | 0.91% | 0.89% | 1.73% | 2.26% | 0.55% | 2.86% | 3.31% | 2.86% | 0.68% | 1.21% | 2.83% | 2.47% | 1.6% | 1.79% | 1.54% | 1.6% | 3.16% | 2.65% | 3.53% | % Inhibition (Average) (COLO205): 3.5%; epitope comparison by competition [5]: bind to different epitopes; amount of immobilized biotinylated antibody ([5]; 10 μg/mL competitor DR5 mAb 2): 0.826; amount of immobilized biotinylated antibody ([5]; 10 μg/mL competitor mIgG): 2.162; Net Gain (Average % Growth Inhibition) (HPAFII [6]): 1.75%; Net Gain (Average % Growth Inhibition) (ES2 [7]): 4.17%; Net Gain (Average % Growth Inhibition) (AsPC1 [8]): 5.11%; Net Gain (Average % Growth Inhibition) (Hs700T [9]): 0.22% |
| B2 | 3.89% | 1.79% | 1.92% | 0.13% | 2.84% | 2.64% | 2.06% | 1.88% | 2.68% | 0.87% | 0.99% | 1.25% | 3.98% | 1.09% | 4.47% | 1.98% | 0.67% | 2.02% | 2.44% | 1.76% | % Inhibition (Average) (COLO205): 3.61%; epitope comparison by competition [5]: bind to different epitopes; amount of immobilized biotinylated antibody ([5]; 10 μg/mL competitor DR5 mAb 1): 2.377; amount of immobilized biotinylated antibody ([5]; 10 μg/mL competitor mIgG): 2.102; Net Gain (Average % Growth Inhibition) (HPAFII [6]): 2.86%; Net Gain (Average % Growth Inhibition) (ES2 [7]): 4.17%; Net Gain (Average % Growth Inhibition) (AsPC1 [8]): 5.11%; Net Gain (Average % Growth Inhibition) (Hs700T [9]): 0.22% |

Reference: patent US10501552B2, “Multivalent molecules comprising DR5-binding domains” (MacroGenics, Inc., priority 2015, dated 2019)
